Here are results for one molecule from article PMC5521794, “Understanding Russell’s viper venom factor V activator’s substrate specificity by surface plasmon resonance and in-silico studies” (PLoS ONE, 2017).

In the assay the target is Russell's viper venom factor V activator (Russell's viper, Natural, unmodified enzyme purified from Indian Russell's viper venom. The isoform (alpha or gamma) is not stated; gamma is assumed because the paper models RVV-V with PDB 3S9C. The candidate entry is). Description: SPR; Biacore T200; RVV-V immobilised on a CM5 chip by amine coupling (3000 RU); peptides flowed over at 62.5 uM to 1 mM in PBS, 30 ul/min; association 120 s, dissociation 300 s; regeneration 10 mM glycine pH 2.5; two-state binding model. The conditions noted are these: both partners purified.

As a reminder, the Kd is a measure of binding affinity in units of concentration. A low value points to higher affinity.

B1: Peptide II (factor V cleavage site II, Lys1008-Pro1022) (peptide)
peptide: KHTHHAPLSPRTFHP
notes: also called site II peptide; source: synthetic peptide; bought: Genei
B1 showed a Kd of 2780 µM.
